Experiment [1] concerns the target biotinylated Ub (biotin maleimide on an N-terminal cysteine) (UniProt P0CG48). Briefly: METRIS (mechanically transduced immunosorbent assay); as a7, surface of Ub, UbV^RING and UbV^CDH1 both added as competitors (concentrations not given).
Experiment [2] has as its target biotin–CycB^N* (AviTag–Cyclin B (1–88)–Cys–6xHis, biotinylated, Alexa488-labeled) (UniProt P14635). Kind of experiment: METRIS (mechanically transduced immunosorbent assay); biotinylated APC/C (with or without CDH1) on streptavidin ferromagnetic beads rolling on streptavidin wells coated with biotinylated CycB^N, Ub–CycB^N or Ub; rotating field 1 Hz; rolling parameter (RP); relative measure; no UbV added.

In experiment [3] the target is biotinylated Ub (biotin maleimide on an N-terminal cysteine) (UniProt P0CG48). The description is as above.
The target of experiment [4] is biotinylated Ub–CycB^N (AviTag–Ub–Cyclin B (1–88)–Cys–6xHis) (UniProt P0CG48). The experiment is described as above.
Experiment [5] has the same target. Kind of experiment: METRIS (mechanically transduced immunosorbent assay); as a7, surface of Ub–CycB^N, UbV^CDH1 added as competitor (concentration not stated).

Sequence of biotin–CycB^N* (AviTag–Cyclin B (1–88)–Cys–6xHis, biotinylated, Alexa488-labeled) (P14635 other isoform, or with tags, fused parts or gaps): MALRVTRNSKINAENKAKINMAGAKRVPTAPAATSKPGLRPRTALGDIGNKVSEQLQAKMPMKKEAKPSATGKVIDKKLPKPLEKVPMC

In turn, “biotinylated APC/C^CDH1 (biotinylated APC/C with HaloTag, AviTag and Twin-Strep(II)-tag on APC4, incubated with CDH1 on the beads) (from UniProt Q9UJX6 1-822; P30260 1-824; Q9UJX5 1-808; Q9UJX3 1-565; Q9UJX2 1-595; Q9UM13 4-185; Q9NYG5 1-84; Q9UM11 1-496) (complex)” yielded a rolling parameter (RP) with UbV^RING and UbV^CDH1 added in experiment [1] of 0.13. Further, the rolling parameter (RP) was determined as 0.15 in experiment [2], 0.17 in experiment [3] and 0.21 in experiment [4]. Moreover, the rolling parameter (RP) with UbV^CDH1 added in experiment [5] was 0.19.

The values are drawn from article PMC10643132.
